In one test the target is T1, Monomeric human CD48-mmH (human).
T1 construct: also called soluble CD48 expressed with a myc-myc-hexa-histidine C-terminal tag [mmH]
T1 chain: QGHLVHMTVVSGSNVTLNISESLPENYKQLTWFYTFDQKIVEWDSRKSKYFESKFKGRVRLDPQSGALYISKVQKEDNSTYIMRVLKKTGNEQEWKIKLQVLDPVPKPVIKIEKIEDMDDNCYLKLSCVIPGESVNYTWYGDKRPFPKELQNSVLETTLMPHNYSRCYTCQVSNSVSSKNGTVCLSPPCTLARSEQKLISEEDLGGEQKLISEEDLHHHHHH
Briefly: SPR (Biacore T100), 25 C, antibody captured by anti-Fc, monomeric CD48-mmH in solution. How it is done: (§1) Measurements were conducted on a T100-2 BIACORE™ instrument (Biacore Life Sciences division of GE Healthcare, Piscataway, N.J.). Antibodies (either with mouse Fc [designated “H2M” or “H3M”] or human IgG4 Fc [designated “H4H”]) were captured through an anti-Fc chip surface, and CD48 was flowed over the surface either in a monomeric (soluble CD48 expressed with a myc-myc-hexa-histidine C-terminal tag [mmH]) or dimeric (soluble CD48 expressed with a C-terminal Fc fusion [mFc]) format.
(§2) The soluble CD48 was applied to the flow cell in separate injections at different concentrations, and kinetic association (kₐ) and dissociation (kd) rate constants were determined by fits to the kinetic binding data using Biacore software. Binding dissociation equilibrium constants and dissociation half-times were calculated from the kinetic rate constants as: KD=kd/kₐ; t_{1/2}=(ln 2/kd) (units: ka=M⁻¹*s⁻¹; kd=s⁻¹; KD=M; T½=min) (Tables 3-6).
For orientation: Surface plasmon resonance follows binding to a sensor surface in real time, without labels.

The next test concerns the target T2, Dimeric human CD48-mFc (human).
T2 chain: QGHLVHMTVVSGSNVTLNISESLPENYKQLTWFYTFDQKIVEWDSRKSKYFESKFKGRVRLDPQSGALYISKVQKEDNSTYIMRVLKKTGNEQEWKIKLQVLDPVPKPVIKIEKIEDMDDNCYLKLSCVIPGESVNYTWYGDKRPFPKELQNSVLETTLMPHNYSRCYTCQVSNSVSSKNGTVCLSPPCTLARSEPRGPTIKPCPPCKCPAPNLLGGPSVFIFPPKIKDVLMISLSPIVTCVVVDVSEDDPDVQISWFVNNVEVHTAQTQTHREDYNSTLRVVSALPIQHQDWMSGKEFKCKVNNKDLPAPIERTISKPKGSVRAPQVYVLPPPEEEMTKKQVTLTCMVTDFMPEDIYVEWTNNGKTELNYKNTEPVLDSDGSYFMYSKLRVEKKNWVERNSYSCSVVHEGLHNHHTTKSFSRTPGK
The test is described as follows: SPR (Biacore T100), 25 C, antibody captured by anti-Fc, dimeric CD48-mFc in solution. How it is done:
as §1, §2

Experimental findings from patent US20130230533A1 (Regeneron, published 2013) are described below.

B1: H2M1763N (antibody, mouse IgG2, V domains shown)
VH: QIQLVQSGAEMKRPGTSVKVSCKASGYTFTSYGINWVRQAPGQGLEWMGWISAYNGDTNYAQKLQGRVTMTTDTSTTTAYMEVRSLRSDDTAVYYCARFLTGTKDYYYGMDVWGQGTTVTVSS
VL: DIQMTQSPSSLSASVGDRVTITCQASQDISNFLNWYQQKPGKAPDLLINDASILETGVPSRFSGSGSGTDFTLTINNLQPEDIATYYCQQYDNLPLTFGGGTKVEIK
notes: Human variable domains, mouse IgG2 Fc (prefix H2M)
On to B1, for which, in the test with Monomeric human CD48-mmH, the Kd (in general, a measure of binding affinity in units of concentration) turned out to be 11.8 nM; the T½ was 2 min; the off-rate (koff) (usually a measure of how fast the partners let go of each other) was found to be 0.00648 s⁻¹; the association rate constant (kon) (in general, a measure of how fast the partners come together) stood at 548000 M⁻¹ s⁻¹. In the test with Dimeric human CD48-mFc, this molecule gave a Kd of 0.256 nM, a T½ of 23 min, a koff of 0.000499 s⁻¹ and an on-rate constant (kon) of 1.95e+06 M⁻¹ s⁻¹.

B2: H2M1712N (antibody, mouse IgG2, V domains shown)
VH: QIQLVQSGAEMKRPGTSVKVSCKASGYTFSSYGINWVRQAPGQGLEWMGWISAYNGDTNYAQKLQGRVTMTTDTSTTTAYMEVRSLRSDDTAVYYCARFLTGTKDLYYGMDVWGQGTTVTVSS
VL: DIQMTQSPSSLSASVGDRVTITCQASQDISNFLNWYQQKPGKAPDLLINDASILETGVPSRFSGSGSGTDFTLTINSLQPEDIATYYCQQYDNLPLTFGGGTKVEIK
notes: as for B1
In the test with Monomeric human CD48-mmH, B2 returned a dissociation constant (Kd) of 11.8 nM, a T½ of 2 min, a koff of 0.00619 s⁻¹ and a kon of 524000 M⁻¹ s⁻¹. In the test with Dimeric human CD48-mFc, this molecule came in with a Kd of 0.288 nM, a T½ of 22 min, an off-rate (koff) of 0.00053 s⁻¹ and a kon of 1.84e+06 M⁻¹ s⁻¹.

B3: H2M1713N (antibody, mouse IgG2, V domains shown)
VH: QVQLVQSGAEVKKPGASVKVSCKASGHTFTNYYIHWVRQAPGQGLEWMGITNPNDGNTRYAQKFQGRISMTWDTSTSTVFMELSSLKSEDTAVYYCAGLRYWFFDLWGRGTPVTVSS
VL: DIQMTQSPSSVSASVGDRVTITCRASQDISSWLAWYQQKPGKAPNLLIFAASSLQSGVPSRFSGSGSGTDFTLTISSLQPEDFGTYYCQQTDNFPRTFGQGTKVEIN
notes: as for B1
In the test with Monomeric human CD48-mmH, B3 registered a Kd of 1.35 nM, a T½ of 53 min, a koff of 0.000217 s⁻¹ and an association rate constant (kon) of 161000 M⁻¹ s⁻¹. In the test with Dimeric human CD48-mFc, this molecule yielded a dissociation constant Kd of 0.0134 nM, a T½ of 1040 min, a koff of 1.11e-05 s⁻¹ and a kon of 826000 M⁻¹ s⁻¹.

B4: H2M1811N (antibody, mouse IgG2, V domains shown)
VH: QVQLVQSGAEAREPGASVRVSCKASGYTFTDYFIHWVRQAPGQGLEWMGWINPNSGATNFAQKFQGRVTMTRDTSLITAYMDLSRLKSDDAAVFYCARDVDGSGWYLDFWGQGTLVTVSS
VL: EIVLTQSPATLSLSPGERATLSCRASQSVSIYLAWYQQKPGQAPRLLIYDASNRATGIPARFSGSGSGTDFTLTISRLEPEDFAVYYCQQRSDWPPSITFGQGTRLEIK
notes: as for B1
As to B4, in the test with Monomeric human CD48-mmH, the Kd worked out at 17 nM, the T½ is 14 min, the koff came to 0.000849 s⁻¹ and the on-rate (kon) amounted to 50000 M⁻¹ s⁻¹. In the test with Dimeric human CD48-mFc, the Kd was 1.6 nM, the T½ was found to be 50 min, the dissociation rate constant (koff) was 0.00023 s⁻¹ and the kon was 144000 M⁻¹ s⁻¹.

B5: H2M1710N (antibody, mouse IgG2, V domains shown)
VH: QVQLVQSGADMKKPGASVRVSCKASGYTFTDYFIHWVRQAPGQGPEWMGWINPDSGATNYAQQFQGRVTMTRDTSISATYMEMSRLRSDDTAVFYCARDKDGSGWYLDDWGQGTLVTVSS
VL: EIVLTQSPATLSLSPGERATLSCRASQSVNIYLAWYQQKPGQAPRLLIYDASNRASGIPARFSGSGSGTDFTLTISSLEPEDFAVYYCQQRSNWPPSITFGQGTRLEIK
notes: as for B1
In the test with Monomeric human CD48-mmH, B5 had a dissociation constant (Kd) of 39.1 nM, a T½ of 8 min, a koff of 0.00146 s⁻¹ and a kon of 37300 M⁻¹ s⁻¹. In the test with Dimeric human CD48-mFc, this molecule showed a Kd of 0.841 nM, a T½ of 123 min, a koff of 9.38e-05 s⁻¹ and an on-rate (kon) of 112000 M⁻¹ s⁻¹.
